Reference: patent publication US20190117751A1 (SAPPORO MEDICAL UNIVERSITY, published 2019)

Tests used:
[1] = biological target: T1, HLA-A24 molecule on the cell surface (HLA-A*2402) (human); assay: HLA-A24 stabilisation assay on T2-A24 cells, flow cytometry with C7709A2
T1 construct: also called HLA-A24 antigen
Protocol: T2-A24 cells, which are HLA-A24-expressing T2 cells, were preincubated in a CO₂ incubator at 27° C. overnight. The cells collected were resuspended in Opti-MEM and plated on a round bottom 96 well plate (Corning) with about 1×10⁵ cells/200 μL per well. A subject peptide was added at concentrations of 0.33 μM, 1 μM, and 10 μM, and incubation was carried out in a CO₂ incubator at 27° C. for 3 hours and subsequently at 37° C. for 2.5 hours. Subsequently, the cells were subjected to centrifugation (380 g, 5 minutes) as they were on the plate, resuspended in 100 μL of a C7709A2 monoclonal antibody-producing hybridoma culture supernatant, and incubated on ice for 45 to 60 minutes. The cells were washed with ice-cooled PBS and then incubated together with an FITC-conjugated goat anti-mouse IgG antibody (KPL, Gaithersburg, Md.) on ice for 30 minutes.

[2] = biological target: T1, HLA-A24 molecule on the cell surface …; assay: not clear: FIG. 7 has no binding assay panel

Binder | binding result [1] | binding result [2]
HWNDTRPAHF (also called HF10) [PVT1-derived natural antigen peptide of SEQ ID No: 1 (HWNDTRPAHF)] | binds | –
RYGNVSHF (Synthetic peptide; also called RF8) [SUV39H2-derived natural antigen peptide of SEQ ID No: 2 (RYGNVSHF)] | binds | –
IFQGNVHNF (Synthetic peptide) [SNRNP40-derived natural peptide of SEQ ID No: 4 (IFQGNVHNF)] | – | binds
